Assay results taken from a protein production outcome set (Wang et al. 2014).

Experiment: label from the status in PepcDB records

Row | Sequence | protein production
1 | MASAHTTQTPFNRLLLTGAAGGLGKVLRETLRPYSHILRLSDIAEMAPAVGDHEEVQVCDLADKDAVHRLVEGVDAILHFGGVSVERPFEEILGANICGVFHIYEAARRHGVKRVIFASSNHVIGFYKQNETIDAHSPRRPDSYYGLSKSYGEDMASFYFDRYGIETVSIRIGSSFPEPQNRRMMSTWLSFDDLTRLLERALYTPDVGHTVVYGVSDNKTVWWDNRFASKLDYAPKDSSEVFRAKVDAQPMPADDDPAMVYQGGAFVASGPFGDK | failed
2 | MINDIILLLFVKIKRRLMMDKLFKLKENGTDVRTEVLAGLTTFFAMSYILFVNPQILSQTGMPAQGVFLATIIGAVAGTLMMAFYANLPYAQAPGMGLNAFFTFTVVFGLGYSWQEALAMVFICGIISLIITLTNVRKMIIESIPNALRSAISAGIGVFLAYVGIKNAGLLKFTIDPGNYTVVGEGADKAQATIAANSSAVPGLVSFNNPAVLVALAGLAITIFFVIKGIKGGIILSILTTTVLAIAVGLVDLSSIDFANNHVGAAFEDLKTIFGAALGSEGLGALVSDTARLPETLMAILAFSLTDIFDTIGTLIGTGEKVGIVATNGENHQSAKLDKALYSDLIGTTVGAIAGTSNVTTYVESAAGIGAGGRTGLTALVVAICFAISSFFSPLLAIVPTAATAPILIIVGIMMLGSLKNIHWDDMSEAVPAFFTSIFMGFSYSITQGIAVGFLTYTLTKLVKGQVKDVHVMIWILDALFILNYISMAL | failed
3 | MQLMRFDKPIGTLLLLHPTLWALFAAAGGIPSSSILIIFILGVIVMRAAGCVINDYADRHIDGKVKRTSQRPLATGRVTTVEAKVLFFVLLIIAFLLDLSLNQYAFLLSFVAVALAVIYPFMKRFTHLPQVVLGMAFGWAIPMAYGAVIEDLPLTCWLLFLANILWTVAYDTQYAMVDRDDDLRIGVKSTAILFAQYDNKIIALLQFLSLILFILFGWLSEYHIGYFIVLALTSTLFIYQCWLTKQRVREQCFKAFLNNNYFGFGIFIAILVGIYGF | failed
4 | MDKNETRATIIRIGTDLISRQGFNATGIDAVLKEAGVPKGSFYYYFRSKEEFGLAVIDHFAERYDQRLDTFLNDEEVTPLNRIRNYLESALARLEQNQCSKGCLIGNLGQELADQHERFRGRLDEIFRSWKDRFAACLREAQRGGELAPELDAGVAAGFILSGLEGAILRTKVMKSPQPLRDFIEILFASVLRRQA | not failed
5 | MFVGVDHAGRDWSWKEPGSTKACRNFMITLFAEWALPATTGQASGRRAMARKFMVPALAVLAFAIAAPAFAQVPANIAKAVADPSRPAAETARDAARRPGEILAMAELKPGDTVVDYIMGGGYFTRIISGAVGPQGVVYAYQPAEFIRFAARYGESLKAVTAALANSKPLDGPITALDLPDNVDAVITVQNYHDMHLKPFPTDTAAKANAEIFKSLKPGGVFLVIDHSAIAGSGITAADTLHRIDIAAVKQEVEAAGFKLEAESGLLADPADARTINVFDPAIRGKTDQFILKFRKPK | failed
6 | MEGLESVYAQAMYGMTRESKIMEHQGSDLIWGGNELMARELCSSSSYHHQLINPNLSSCFMSDLGVLGEIQQQQHVGNRASSIDPSSLDCLLSATSNSNNTSTEDDEGISVLFSDCQTLWSFGGVSSAESENREITTETTTTIKPKPLKRNRGGDGGTTETTTTTTKPKSLKRNRGDETGSHFSLVHPQDDSEKGGFKLIYDENQSKSKKPRTEKERGGSSNISFQHSTCLSDNVEPDAEAIAQMKEMIYRAAAFRPVNFGLEIVEKPKRKNVKISTDPQTVAARQRRERISEKIRVLQTLVPGGTKMDTASMLDEAANYLKFLRAQVKALENLRPKLDQTNLSFSSAPTSFPLFHPSFLPLQNPNQIHHPEC | failed
7 | MPSQDYLRVLNPSLSGPTPIAFIILALISAGLLIIIWRNRDLISTDNLRGKIIFIVISAALIFTFGRISFALSEVLIFLWALSILWIRGNTDNIEMNLAMAAWVLAYLYMHSFHPVKADRYIITVLPALAYAISLSLNNLSALMRSRRASTVLSIAVTLLMVSSAIHYTAGWPQEYGIVKGERSGAWLMNHDPSYRDRVIAADRGPAFTWYLGDYVFTRIIHPQRRELSLKYFYEVNPDYYIFWTGKTELPEGYRVIYSRDGVPLPGRFSRYAGILPLRYRIQWMLR | failed
8 | MKLPRLWPTALSLLCSLALAQAPASPGTTAQGPAPAAVAGLAALPGGTRLVCAGTSLWTLSTSAAPQRLPLPEDCQGLRVSPSGKVVLVSGRASVTVWRLDAEQQSDGQLWRRVALPEPARRVAFLNDSTLLLAGARGLEQLDLNTQARTLLRPGAVTGLATAPDGRRAVMGDGSRVQLVNVADGAVLSGVRCEVACPLQDVQFSRDQRGAVVQAGPVLYALREGHPATAVLRGAEGAMGFPLPDGGVWVLTAGRLERRDAQTGRREGVLRPEGVSGPAAWTPEGGLLYVAGRELVELDKTGQEVGRTALP | failed
9 | MGSCMKWDYGEMEDFSVSASGLFITNEGNFQYSNATLSYYDPATCEVENEVFYRANGFKLGDVAQSMVIRDGIGWIVVNNSHVIFAIDINTFKEVGRITGFTSPRYIHFLSDEKAYVTQIWDYRIFIINPKTYEITGYIECPDMDMESGSTEQMVQYGKYVYVNCWSYQNRILKIDTETDKVVDELTIGIQPTSLVMDKYNKMWTITDGGYEGSPYGYEAPSLYRIDAETFTVEKQFKFKLGDWPSEVQLNGTRDTLYWINNDIWRMPVEADRVPVRPFLEFRDTKYYGLTVNPNNGEVYVADAIDYQQQGIVYRYSPQGKLIDEFYVGIIPGAFCWKLEHHHHHH | failed
10 | MRFPVLSRFLHPDPRIRRELVELLYTSLPQVMAIGVTSVTGALALTLLGDDPGYAVITFFILVTATARVFSLMRYKARAARFTDADVVRWERLYGAGATAFGLALGALSFRALQLGDAPGAWIAFGLSMSYCVGMVSRAAIRPWIILTAAAALLMPTMIAGLMRPELAYKIGAGMLVLFWLTLREASKHLSAAFTERLEAKHRLARQATHDFLTDLPNRAGFLQALSDMAGNFTVVAIDLDGFKPINDRHGHHTGDDLLRQVAERLTTCVGADGVAARFGGDEFMLLKPVTSAEQGRDEALALARKAVFDLSMPYLLADLPVCIGASAGIAISHAALAGGNTAQLLERVDRALYVAKRAGGGCAWADGDIEPSCCPRSTPLAKDSAAA | failed
11 | MEDTTFTKVFVGGLAWETHKVSLRNYFEQFGDIVEAVVITDKSSGRSKGYGFVTFCDPEAAQKACVDPAPVIDGRRANCNLAAFGVQRSKPSSPIHGTFRFLSFDTLLLKTLHQEYM | failed
12 | MEQLQIGDIKVTWLKGGNTHLDGGAMFGVVPKVLWSRKYKHNDTNHIYLRTDPLLLQTKDGNMLIDSGIGNGKLNEKMKRNQGVTEESSVYESLEKLGLKPEDIDYVLMTHLHFDHASGLTKWEDDHLVPSFPNAKVYVSETEWNEMRNPNIRSRNTYWKENWEPIVDQVVTFQQEIEITDEIKMARTGGHSDGHAVIALESQGETMLHLADLLPTHAHQNVLWVMAYDDYPMTSIENKQKWMKYGAEKEAWFTFYHDAYYRAVKWNEEGHIVEKIERKTSIEA | failed
13 | PRLYKEPSAKSNKFIIHNALSHCCLAGKVNEPQKNRILEEIEKSKANHFLILFRDSSCQFRALYTLSGETEELSRLAGYGPRTVTPAMVEGIYKYNSDRKRFTQIPAKTMSMSVDAFTIQGHLWQSKK | not failed
14 | MPAFVTFGRILFAVLFIYTGATKLFAIQATADFIATKVVVPDIIAPYAKQIETATAMTTPQLLAIAVGALEIIAGLMIALNFGARFFAMLLIVYVAVATVLFYDFWNLAAPDNAKMLVDALKNLSIIGALCMIIGYGRATRPVEAAYGDV | failed
15 | MSLSKDNIWKLLAPLVVMGVMLLIPVPDGMPPQAWHYFAVFVAMIVGMILEPIPATAISFIAVTICVIGSNYLLFDASELADPAFKASKQALKWGLAGFSSTTVWLVFGAFIFALGYEVTGLGRRIALFLVKFMGKRTLTLGYAIVIIDILLAPFTPSNTARTGGTVFPVIKNLPPLFKSFPNDPSARRIGGYLMWMMVISTSLSSSMFVTGAAPNVLGLEFVSKIAGVQISWLQWFLSFLPVGIILLIVAPWLSYVLYKPEVTHSAEVAAWAGGELKNMGRLSRKEWTLIGLVLLSLGLWVFGGKIINATAVGLLAVSLMLALHVVPWKDITRYNSAWNTLVNLATLVVMANGLTRSGFIDWFANTMSTHLEGFSPDATVIVLVLVLVLVLVLVLVLVLVLVLVLVLVLVFYFAHYLFASLSAHTATMLPVILAVGKGIPGVPMEQLCILLVLSIGIMGCLTPYATGPGVIIYGCGYVKSRDYWRLGAIFGVIYIAMLLLVGWPILAMWN | failed
